# Results as given in US20090117593A1, “T. Cruzi-derived neurotrophic agents and methods of use therefor” (Tufts University, priority 2006, published 2009).
# “Also recorded” adds a separate entry of the source. Read-outs that look alike come from different tables or passages of the source.
# Columns and labels:
# neuroblastoma N18 cells = assay: Neurite outgrowth assay in N18 cells; assay type: cell-based; details: soluble or immobilized on plastic (500 μg/ml coating), 17 hours
# Protocol: 96-well microtiter plates were coated overnight at 4° C. with the TS or peptides or fragments thereof, or with control proteins laminin (Ln) or bovine serum albumin (BSA) at 500 μg/ml. After removing the compounds, the plates were further incubated with 1% BSA for 1 hour at room temperature and immediately used as substratum for PC12 or N18 (Prasad, K., Biol. Rev. Camb. Philos. Soc., 66:431-451 (1991)) cells in serum-free RPMI/0.2% BSA. Neurite outgrowth was measured using a phase-contrast microscope 17 hours later.
# PC12 cells [1] = assay: Protection of PC12 cells from apoptosis induced by trophic factor withdrawal (DAPI, TUNEL); assay type: cell-based
# Description: PC12 cells were obtained from ATCC (Manassas, Va. (Accession No. CRL-1721)) and cultured on collagen-coated dishes in RPMI 1640 supplemented with 10% horse serum and 5% fetal bovine serum (Greene, L., and Tishler, A., Proc. Natl. Acad. Sci. USA, 73:2424-2428 (1976)). For differentiation and survival experiments, cells were washed three times in serum-free RPMI/0.2% BSA, plated in the same medium in collagen-coated plastic dishes at 2×10^5/ml, without and with growth factors, TS, recombinant proteins, synthetic peptides, for the time and concentrations indicated in the Figures.
# Cell staining with 4,6-diamino-2-phenylindole (DAPI). Cells were fixed with 4% formaldehyde in PBS for 5 minutes, washed with PBS, stained with 10 μg/ml DAPI (Sigma) for 2 minutes, washed with PBS, and visualized under UV light using a fluorescent microscope. About 300-400 cells were examined under the microscope to determine the percentage of apoptotic cells.
# Cell DNA nick end labeling (TUNEL) (Gavrieli, Y. et al., J. Cell. Biol., 119:493-501 (1992)) assay was performed using a kit purchased from Boehringer Mannheim as described by the manufacturer.
# Protection against apoptosis of PC12 cells in serum-free medium containing a test agent (agent N) (e.g., protection induced by TS, TS fragments, NGF or other growth factors), was calculated by the formula: 100%−[(apoptosis(%) of cells kept in RPMI containing test agent N÷apoptosis (%) of cells kept in RPMI)×100%]. Testing the effect of Wortmannin (Sigma) and LY294002 (Sigma) in inhibiting the neuroprotection of TS was performed following the protocol described by others (Yao, R., and Cooper, G., Science, 267:2003-2006 (1995); D'Mello, et al., J. Neurosci., 17:1548-1560 (1997)). In brief, PC12 cells were switched from growth medium to RPMI without and with TS or various other growth factors. After 24 hours, Wortmannin and LY294002 were added to the cultures. After another 24 hours, cells were examined for apoptosis by the DAPI assay, as above.
# Trans-sialidase assay = assay type: biochemical
# Protocol: The trans-sialidase assay was performed as described (Scudder, P. et al., J. Biol. Chem., 268:9886-9891 (1993)) with slight modifications. Various amounts of intact enzyme or enzyme fragments were added to 50 mM PBS, Ph 7.2, containing 15% fetal calf serum and […] of [^14C]N-acetyllactosamine (4×10^5 dpm), 50 μg BSA and 0.02% NaN3 in a volume of 60 μl. After incubation for a predetermined amount of time at room temperature, the reaction mixture was diluted to 1.0 ml with distilled water and applied to a column containing 1.0 ml Q-Sepharose equilibrated with water. Sialylated product was eluted with 1 M NaCl and quantified by scintillation counting.
# TS enzymatic activity was measured by the sialylation of the acceptor ^14C-labeled N-acetyllactosamine on anion exchange resins (Scudder, P. et al., J. Biol. Chem. 268:9886-9891 (1993)). Recombinant TSA-1, was expressed on insect sf9 cells and purified from serum-free medium by ion exchange chromatography (monoQ) and preparative SDS-PAGE (Wrightsman, R. A. et al., J. Immunol., 153:3148-3154 (1994).
# PC12 cells [2] = assay type: cell-based; details: serum-free RPMI/0.2% BSA, collagen coated dishes, 16-17 hours
# IL-6 [3] = assay: IL-6 secretion by PBMC (ELISA); assay type: cell-based, human; details: 24 hours
# Protocol: (§1) Primary cultures of human intestinal microvascular endothelial cells (HIMEC) isolated from normal jejunal mucosa/submucosal tissue were prepared as described (Strong et al., Gastroenterology 114:1244-1256 (1998)). The HIMEC were cultured in fibronectin-coated plasticware in MCDB medium (Sigma) supplemented with 20% FBS, 90 μg/ml heparin and 50 μg/ml endothelial cell growth factor (Sigma). T-24 cells (ATCC Accession No. HTB-4) were cultured in M199 medium supplemented with 10% FBS. PBMC were purified by Ficoll-Paque gradient as described (Current Protocols in Immunology, pp 7.1.1-7.1.2). Vero cells (ATCC Accession No. CCL-81) were grown in RPMI medium with 5% Nu serum and infected with the Silvio X-10/4 of T. cruzi as described previously (Chuenkova et al., J. Exp. Med. 181:1693-1703 (1995)).
# (§2) Endothelial cells and T-24 cells were plated on 24-well plates at a density of 1×10^3 cells/well, while peripheral blood mononuclear cells (PBMC) were plated in the similar wells at 1×10^6/well. Triplicat cultures of cells were incubated test agents for a predetermined amount of time. […] Cytokines and chemokines released in the culture supernatants were measured by ELISA assay following the instructions of the manufacturer (Endogen). The cytokines tested were IL-1β, IL-4, IL-8, […], IL-12, IFN-γ, TNF-α, and the chemokines RANTES and MCP-1. Negative controls were cells incubated in medium containing polymixin B at 10 μg/ml, and positive controls were cells incubated with bacterial LPS at the low ng/ml range (for PBMC or HIMEC) or in the μg/ml range for carcinoma T-24 cells. In some experiments, IL-1β or TNFα were used as positive control for cytokine release.
# TR peptides (Table 2) were synthesized at the Tufts Synthesis Facility (Boston, Mass.). Each peptide was purified by HPLC, and the number of amino acids and molecular weight of each peptide verified by mass spectrometry. Peptides were dissolved in growth medium (10% FCS in RPMI) and added at various concentrations to 1×10^6 PBMC/well in 24-well plates. After 24 hours, IL-6 was assayed by ELISA in the conditioned supernatants.
# IL-6 [4] = assay: IL-6 secretion by T-24 carcinoma cells (ELISA); assay type: cell-based, human; details: 24 hours
# Protocol: as §1, §2
# human Schwann cells = assay: Serum withdrawal-induced apoptosis of Schwann cells (DAPI); assay type: cell-based; details: serum-free DMEM, 24-72 hours
# Akt kinase = assay: Immunodetection and kinase assay of activated Akt in Schwann cells; details: Western blot P-Akt (Ser473)
# Protocol: Schwann cells, grown in 10% FCS to 70% confluency in 6-well plates, were switched to DMEM containing 0.1% FCS for 48 hours to reduce basal Akt phosphorylation. Then the cells were placed in serum-free DMEM medium for 2 hours and challenged with TS, CD or other test factors for predetermined periods of time. When the PI-3 kinase inhibitor LY294002 (Sigma) was used, the inhibitor was added to the serum-starved cells 30 minutes before challenge with TS or CD. Cell samples were lysed with lysis buffer (20 mM Tris, pH 7.5, 150 mM NaCl, 1 mM EDTA, 1% Triton X-100 (t-Octylphenoxypolyethoxyethanol), 2.5 mM sodium pyrophosphate, 1 mM glycerophosphate, 1 mM Na3VO4, 1 μg/ml leupeptin and 1 mM Phenymethylsulfonyl fluoride (PMSF)). Samples (40 μg) were run on 10% SDS-Page, blotted to nitrocellulose paper and analyzed by Western (immuno) blot with monoclonal antibody specific for P-Ser473 of Akt (New England Biolabs). Reaction was visualized by chemiluminescence using the ECL kit (New England Nuclear).
# Enzymatic activity of Akt kinase was assessed using the synthetic substrate GSK-3α-fusion protein (Cell Signaling Technology, Beverly, Mass.), according to the protocol provided by Cell Signaling Technology. In short, lysates of Schwann cells subjected to various treatments were immunoprecipitated with Akt antibody coupled to agarose beads, and the immunoprecipitates incubated with GSK-3α-fusion protein as the substrate for Akt phosphorylation, in the presence of 200 μM ATP. Phosphorylation of GSK-3 fusion protein was detected by Western blot using phospho-GSK-3αβ (Ser21/9)-specific antibody (Cell Signaling Technology). The reaction product was identified by chemiluminescence using the ECL kit (New England Nuclear).
Molecule,neurite outgrowth in N18 cells (neuroblastoma N18 cells),trans-sialidase (enzymatic) activity (Trans-sialidase assay),neurite outgrowth in PC12 cells (PC12 cells [2]),IL-6 secretion by PBMC (IL-6 [3]),IL-6 secretion by T-24 cells (IL-6 [4]),further results
"TS-Cat-47: recombinant fragment consisting of amino acid residues 79-415 of TS (SEQ ID NO:2) (protein, listed as Trypanosoma cruzi) MVAIADARYDTSNDNSLIDTVAKYSVDDGETWETQIAIKNSRVSSVSRVVDPTVIVKGNKLYVLVGSYYSSRSYWSSHGDARDWDILLAVGEVTKSTAGGKITASIKWGSPVSLKKFFPAEMEGMHTNQFLGGAGVAIVASNGNLVYPVQVTNKKKQVFSKIFYSEDDGKTWKFGKGRSDFGCSEPVALEWEGKLIINTRVDWKRRLVYESSDMEKPWVEAVGTVSRVWGPSPKSNQPGSQSSFTAVTIEGMRVMLFTHPLNFKGRWLRDRLNLWLTDNQRIYNVGQVSIGDENSAYSSVLYKDDKLYCLHEINTDEVYSLVFARLVGELRIIKSVL",inactive in stimulating neurite outgrowth; also recorded: did not promote neurite outgrowth,–,–,–,–,–
"TS-F-47: recombinant fragment, amino acid residues 79-666 of SEQ ID NO:34 (protein, listed as Trypanosoma cruzi) GDARDWDILLAVGEVTKSTAGGKITASIKWGSPVSLKKFFPAEMEGMHTNQFLGGAGVAIVASNGNLVYPVQVTNKRKQVFSKIFYSEDDGKTWKFGKGRSDFGCSEPVALEWEGKLIINTRVDWKRRLVYESSDMEKPWVEAVGTVSRVWGPSPKSNQPGSQTSFTAVTIEGMRVMLFTHPLNFKGRCVRDRLNLWLTDNQRIYNVGQVSIGDENSAYSSVLYKDDKLYCLHEINTDEVYSLVFARLVGELRIIKSVLRSWKNWTATCPAFAPLLIQPLRRQRVVVVPLSPRLVLLAFCRQRLPKRMGGSYRCVNASTANAERVRNGLKFAGVGGGALWPVSQQGQNQRYRFANHAFTLVASVTIHEAPRAASPLLGASLDSSGGKKLLGLSYDEKHQWQPIYGSTPVTPTGSWETGKRYHLVLTMANKIGSVYIDGELLEGSGQTVVPDGRTPDISHFYVGGYKRSDMPTISHVTVNNVLLYNRRQLNTEEIRTLFLSQDLIGTEAHMDSSSDSSAHSTPSTPADSSAHSTPSTPVDSSAHSTPSTPADSSAHGTPSTPVDSSAHGTPSTPADSSAHGTPSTPVDS",as effective as the native enzyme in stimulating neurite outgrowth; also recorded: active both in stimulating neurite outgrowth,enzymatically inactive,–,–,–,"protection of PC12 cells from apoptosis induced by trophic factor withdrawal (PC12 cells [1]; serum-free RPMI-1640/0.2% BSA, 17 hours, DAPI or TUNEL): active"
NGF: Mouse 7S nerve growth factor (protein) SSTHPVFHMGEFSVCDSVSVWVGDKTTATDIKGKEVTVLAEVNINNSVFRQYFFETKCRASNPVESGCRGIDSKHWNSYCTTTHTFVKALTTDEKQAAWRFIRIDTACVCVLSRKATRRG,–,–,induces neurite outgrowth,–,–,PC12 cells protected from apoptotic death (PC12 cells [1]; NGF at 0.5 ng/ml): 18%
"cruzipain: T. cruzi protease (protein, UniProt P25779 123-467, looked up) Cruzipain: APAAVDWRARGAVTAVKDQGQCGSCWAFSAIGNVECQWFLAGHPLTNLSEQMLVSCDKTDSGCSGGLMNNAFEWIVQENNGAVYTEDSYPYASGEGISPPCTTSGHTVGATITGHVELPQDEAQIAAWLAVNGPVAVAVDASSWMTYTGGVMTSCVSEQLDHGVLLVGYNDSAAVPYWIIKNSWTTQWGEEGYIRIAKGSNQCLVKEEASSAVVGGPGPTPEPTTTTTTSAPGPSPSYFVQMSCTDAACIVGCENVTLPTGQCLLTTSGVSAIVTCGAETLTEEVFLTSTHCSGPSVRSSVPLNKCNRLLRGSVEFFCGSSSSGRLADVDRQRRHQPYHSRHRRL",–,–,did not induce neurite extension,–,–,neurite outgrowth in PC12 cells (PC12 cells [2]; listed as cruzipan): ineffective
"TS-H32 (protein, listed as Trypanosoma cruzi) KKKQVFSKIFYSEDDGKTWKFGEGRSAFGCSEAVALEWEGKLIINTRVDYRRRLVYESSDMGNTWLEAVGTLSRVWGPSPKSNQPGSQSSFTAVTIEGMRVMLFTHPLNFKGRWLRDRLNLWLTDNQRIYNVGQVSIGDENSAHSSVLYKDDKLYCLHEINSNEVYSLVFARLVGELRIIKSVLQSWKNWDSHLSSICTP",–,enzymatically-inactive,–,stimulating IL-6 secretion,stimulating IL-6 secretion,–
LTR: recombinant full-length C-terminal long tandem repeat of TS clone 7F (protein) NRRQLNTEEIRTLFLSQDLIGTEAHMDSSSDSSAHSTPSTPADSSAHSTPSTPVDSSAHSTPSTPADSSAHGTPSTPVDSSAHGTPSTPADSSAHGTPSTPVDSSAHSTPSTPVDSSAHSTPSTPVDSSAHGAPSTPADSSAHGTPSTPVDSSAHGTPSTPADSSAHSTPSTPADSSAHSTPSTPADSSAHSTPSTPVDSSAHGTPSTPADSSAHSTPSTPADSSAHGTPSTPVDSSAHSTPSTPVDSSAHGTPSTPVDSSAHSTPSTPVDSSAHGTPSTPVDSSAHSTPSTPADSSAHSTPSTPADSSAHGTPSTPVDSSAHSTPSTPADSSAHSTPSTPVDSSAHSTPSTPADSSAHGTPSTPVDSSAHGTPSTPADSSAHSTPSTPADSSAHSTPSTPADSSAHSTPSTPVDSSAHSTPSTPADSSAHSTPSTPADSSAHSTPSTPADSSAHSTPSTPVDSSAHSTPSTPADSSAHGTPSTPADSSAHSTPSTPVDSSAHSTPSTPADSSAHGTPSTPADSSAHSTPSTPADSSAHGTPSTPADSSAHSTPSTPAGSSANGTVLILPDGAALSTFSGGGLLLCACALLLHVFFMAVF,did not induce neurite outgrowth,–,did not induce neurite outgrowth,upregulated IL-6 release,effectively induced release of IL-6 in a dose-dependent manner; also recorded: dose dependent secretion of IL-6,inhibition of serum withdrawal-induced apoptosis of Schwann cells (human Schwann cells): did not promote Schwann cell survival; phosphorylation (activation) of Akt kinase in Schwann cells (Akt kinase): nor activate PI3K/Akt signaling
